Experiment [1] has as its target Gerd_ePriL, non-catalytic primase subunit PriL (Heimdall group) of Candidatus Gerdarchaeota archaeon B18_G1 (Candidatus Gerdarchaeota archaeon B18_G1). The experiment is described as follows: SPR; BIACORE, CM5 chip; Gerd_ePriL or Gerd_aPriL1 immobilised, Gerd_ePriS concentration gradient (methods; the legend of Figure 3 tells the reverse); 20 mM Hepes pH 7.5, 500 mM NaCl, 0.005% Tween 20, 30 uL/min, 25 °C. A general note: SPR reads the build-up and loss of mass on a sensor chip optically.

Experiment [2] deals with Gerd_aPriL1, non-catalytic primase subunit PriL (Loki group) of Candidatus Gerdarchaeota archaeon B18_G1 (Candidatus Gerdarchaeota archaeon B18_G1). Described as above.

For orientation: Kd means a measure of binding affinity in units of concentration. Low values mean a tighter complex, high ones a looser complex. With “Gerd_ePriS, catalytic primase subunit PriS of Candidatus Gerdarchaeota archaeon B18_G1 (enzyme)”, the Kd in experiment [1] came out at 2.67 nM; in experiment [2], 105 nM.

The values are drawn from paper PMC12770985.
